Source: the supplement of paper PMC9170038

Test system: MS2 coat protein
Experiment: apparent KD of MS2 coat protein; designed switch direction (-1 OFF switch, 1 ON switch): -1; higher = weaker reporter binding
Method in brief: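 The apparent KD reported per design is the median over clusters of curve fits to normalised cluster fluorescence. The RNA switches were transcribed on Illumina chips by stalled E. coli RNA polymerase. SNAP-549-labelled MS2 coat protein was titrated from 0.7 or 1.5 nM, doubling up to 3 µM, in Tris-HCl pH 7.5 buffer containing KCl, MgCl2, BSA, DTT, tRNA and Tween-20, with no input, 200 uM small-molecule ligand, or an oligonucleotide input.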

[1] = input ligand: microRNA oligo, concentration not stated
[2] = Eterna round: R95, input ligand: FMN 200 uM
[3] = Eterna round: R95, input ligand: microRNA oligo, concentration not stated
[4] = Eterna round: R95, input ligand: none

| Sequence | apparent KD of MS2 coat protein [1] [µM] | apparent KD of MS2 coat protein (input ligand: FMN 200 uM) [µM] | apparent KD of MS2 coat protein (input ligand: none) [µM] | other results |
| --- | --- | --- | --- | --- |
| UAUUAACAUGUAGGAUAUCUGCACGAUUAGUGCAGAGAAGGACAUGAGGAUCACCCAUGUAGAUCAUAAUAAUUUAAUUUAAUU [ENG1/6-D1] (Eterna round: R96, puzzle: Exclusion NG 1) | 0.106 |  |  |  |
| UAUUACAAGCGAGAUCCUAACAUGAGGAUCACCCAUGUGCUCGUCUCAUAUAGGACUAUCACGAAAGUGAUAGUCCA [Level Boss var2-01] (puzzle: Sensor v3, turn-off variant 1) |  |  |  | apparent KD of MS2 coat protein [2]: 0.0215 µM; apparent KD of MS2 coat protein [3]: 0.14 µM; apparent KD of MS2 coat protein [4]: 0.0152 µM |
| UAUUAGAGAGGAUAUAUGAUGUGAAACAUGAGGAUCACCCAUGUAAUAUUAUGGAUGUAAAUAGAAGGCUCAUUUA [Mat - Exclusion 5 - JL mod - D15] (puzzle: Exclusion 5) |  |  |  | apparent KD of MS2 coat protein [2]: 0.0474 µM; apparent KD of MS2 coat protein [3]: 0.0775 µM; apparent KD of MS2 coat protein [4]: 0.0802 µM |
| UAUUAGCAAGCAAGAUCCCACAUGAGGAUCACCCAUGUGCUCGUCUUAAGCCCAGAAUUACUGGGCGCUCGUCUUAU [Winner reversed engineered 22] (Eterna round: R97, puzzle: Sensor, turn-off variant 1) |  | 0.0303 | 0.0284 |  |
| UAUUAGCAAGCGAGAUCCCACAUGAGGAUCACCCAUGUAAUAAAAGCAUCCAGAAUUACUGGGUGCGCUCGUCUUAU [Winner reversed engineered 14] (Eterna round: R97, puzzle: Sensor, turn-off variant 1) |  | 0.0477 | 0.0495 |  |
| UAUUAGCAAGCGAGAUCCCACAUGAGGAUCACCCAUGUGCAUCCAGAAUUACUGGGUGCAAAAGCUCGUCUUAUAUA [Winner reversed engineered 2] (Eterna round: R97, puzzle: Sensor, turn-off variant 1) |  | 0.0624 | 0.0581 |  |
| UAUUAGCAAGCGAGAUCCCACAUGAGGAUCACCCAUGUGCUCGUCUUAUAAAAGACUGUGACAAAAGUCACGGUCAC [Sensor 3, v1 - 91 v5] (Eterna round: R97, puzzle: Sensor, turn-off variant 1) |  | 0.0159 | 0.0151 |  |
| UAUUAGCAAGUAAGGUCCCACAUGAGGAUCACCCAUGUGCUCGUCUUAUAAGGUACUGUGACGAAAGUCACGGUACC [Sensor 3, v1 - 95] (Eterna round: R96, puzzle: Sensor v3, turn-off variant 1) | 0.326 | 0.022 | 0.0236 |  |
| UAUUAGCAAGUAAGGUCCCACAUGAGGAUCACCCAUGUGCUCGUCUUAUAAGGUACUGUGACGAAAGUCACGGUACC [Sensor 3, v1 - 95] (puzzle: Sensor v3, turn-off variant 1) |  |  |  | apparent KD of MS2 coat protein [2]: 0.0184 µM; apparent KD of MS2 coat protein [3]: 0.585 µM; apparent KD of MS2 coat protein [4]: 0.0181 µM |
| UAUUAGCAAGUGAGAUCCCACAUGAGGAUCACCCAUGUGCUCGUCUUAUAAGGUACUGUGACGAAAGUCACGGUACC [Sensor 3, v1 - 91 v1] (Eterna round: R97, puzzle: Sensor, turn-off variant 1) |  | 0.0562 | 0.0476 |  |
| UAUUAGCAAGUGAGAUCCGACAUGAGGAUCACCCAUGUGCUCGUCUUAUAAGGUACUGUGACAAAAGUCACGGUACC [Elimod 2 - Jieux - Sensor, turn-off variant 1] (Eterna round: R97, puzzle: Sensor, turn-off variant 1) |  | 0.2 | 0.283 |  |
| UAUUAUUGCAAGGAUAUGCUUUUUAUUUCUUUUGCAGAAGGUGCAACAUGAGGAUCACCCAUGUUUCCGGGUAU [JR_E6_Sub033] (puzzle: Exclusion 6) |  |  |  | apparent KD of MS2 coat protein [3]: 0.0204 µM |
| UAUUUAAUUAACAAGCUUUACAUGAGGAUCACCCAUGUGAUCAUGCUCGUCUUAUAAUUAAUUAAUUAAUUAAUUAA [Stov1/6-A2] (Eterna round: R97, puzzle: Sensor, turn-off variant 1) |  | 0.0516 | 0.0628 |  |
| UAUUUAGCAAGCAGAUCCCACAUGAGGAUCACCCAUGUUUUCUGAAAAUAAAUUAAAAUAGCUGAAGCUCGUCUUAU [Winner reversed engineered 38] (Eterna round: R97, puzzle: Sensor, turn-off variant 1) |  | 0.139 | 0.137 |  |
| UAUUUAUAUGAAGGAUAUACUUAACAUGAGGAUCACCCAUGUGGUGUUGUGAGUGAGUGAGUUUAGUAGAAGGUCAAUGAUUUU [JMF's solution 74] (Eterna round: R96, puzzle: Exclusion NG 2) | 0.286 | 0.87 | 0.311 |  |
| UCAACGCAAGGAUAUACUUGCGGUGAUGUUCGAAUUCUUCUACUUGAGGAUCACCCAAGUAGAAGGUGCGAUGA [jl-ex2.4.62 ViennaUCT mod] (Eterna round: R97, puzzle: Exclusion 2) |  | 0.0125 | 0.0134 |  |

| Sequence | apparent KD of MS2 coat protein [1] [µM] | apparent KD of MS2 coat protein (input ligand: FMN 200 uM) [µM] | apparent KD of MS2 coat protein (input ligand: none) [µM] | other results |
| --- | --- | --- | --- | --- |
| UCAAUUUUGCGAGGAUAUCGACCAUUCCUCUUUACAUGAGGAUCACCCAUGUACUUAUUCUACAACGAGAAGGCGCUCAUAGUU [JR_ExcNG2_Sub064] (Eterna round: R96, puzzle: Exclusion NG 2) | 0.03 |  |  |  |
| UCAAUUUUGCGAGGAUAUCGACCAUUCCUCUUUACAUGAGGAUCACCCAUGUUCUUUUUCUACAACGAGAAGGCGCUCAUAGUU [JR_ExcNG2_Sub063] (Eterna round: R96, puzzle: Exclusion NG 2) | 0.0562 |  |  |  |
| UCACGGGACUAAGGAUAUAUGAGAGCCAUUAACAUAGAAGGUAGAAUGUUAGAUCAUAAACUAAACAUGAGGAUCACCCAUGUU [JR_ExcNG1_Sub093] (Eterna round: R96, puzzle: Exclusion NG 1) | 0.0202 | 0.0196 | 0.0232 |  |
| UCACGGGACUGAGGAUAUACAUGAACCAUGUUUGUAGAAGGCAGAAGGUUUGAUCAUACACUAAACAUGAGGAUCACCCAUGUU [JR_ExcNG1_Sub027] (Eterna round: R96, puzzle: Exclusion NG 1) | 0.0151 | 0.0211 | 0.0251 |  |
| UCACGGGAUUGAGGAUAUAUAUUAAUUUUUACAAUAGAAGGCAAAUUGUUAGAUUAUUCACUAUACAUGAGGAUCACCCAUGUU [JR_ExcBG1_Sub078] (Eterna round: R96, puzzle: Exclusion NG 1) | 0.0176 |  |  |  |
| UCACGGGAUUGAGGAUAUAUAUUAAUUUUUUUUAUAGAAGGCAAAAUGUUAGAUUAUUCACUAUACAUGAGGAUCACCCAUGUU [JR_ExcBG1_Sub076] (Eterna round: R96, puzzle: Exclusion NG 1) | 0.0182 |  |  |  |
| UCACGGGUUUGAGGAUAUAUAUUUAUUAUUUUAAUAGAAGGCAAAGAGAUAGUUUUUUCACUAUACAUGAGGAUCACCCAUGUU [JR_ExcNG1_Sub087] (Eterna round: R96, puzzle: Exclusion NG 1) | 0.0276 |  |  |  |
| UCACGUACAGGAUAUACAUGAGGAUCACCCAUGUGCUCGAAGGCACGCCCGAGAUUCUGUAGAAGGGUAUAGCA [Eternabot (L1) Solution 50] (Eterna round: R97, puzzle: Exclusion 3) |  | 0.0384 | 0.0325 |  |
| UCAUAACAUGAGGAUCACCCAUGUGAGGAUAUGAUACUAUGUACUUCGGUACAUAGUAUCAGAAGGCGCAUACU [Brourd's Ex1-3: 11 (nt 68 G)] (puzzle: Exclusion 1) |  |  |  | apparent KD of MS2 coat protein [2]: 0.115 µM; apparent KD of MS2 coat protein [3]: 0.0552 µM; apparent KD of MS2 coat protein [4]: 0.0491 µM |
| UCAUACGAUGAGGAUAUCUCAGUUAAAGUAUUUAGAGAAGGCGUUACAUGAGGAUCACCCAUGUUUAUGGGCAU [Ex-6 Malc#7] (puzzle: Exclusion 6) |  |  |  | apparent KD of MS2 coat protein [2]: 0.178 µM; apparent KD of MS2 coat protein [3]: 0.121 µM; apparent KD of MS2 coat protein [4]: 0.19 µM |
| UCAUACGGUGAGGAUAUCUCCACUAAAGUGUGAAGAGAAGGCGCUACAUGAGGAUCACCCAUGUCUAUGGGCAG [Ex-6 Malc#15] (puzzle: Exclusion 6) |  |  |  | apparent KD of MS2 coat protein [2]: 0.0374 µM; apparent KD of MS2 coat protein [3]: 0.075 µM; apparent KD of MS2 coat protein [4]: 0.109 µM |
| UCAUCCGUAGGAUAUAAGAAACACAACAUGAGGAUCACCCAUGUGACCGUCAGUUAUUGCUUAGAAGGACGCGUAC [Eternabot (L1) Solution 70] (Eterna round: R97, puzzle: Exclusion 5) |  | 0.131 | 0.0912 |  |
| UCAUGGAAGCAGGAUAUGCUUGUUUAAUUGUUUGCAGAAGGGCUAACAUGAGGAUCACCCAUGUGAGAGGUCUA [JR_E6_Sub064] (puzzle: Exclusion 6) |  |  |  | apparent KD of MS2 coat protein [2]: 0.0205 µM; apparent KD of MS2 coat protein [3]: 0.0338 µM; apparent KD of MS2 coat protein [4]: 0.0367 µM |
| UCAUGGUAGCAGGAUAUGCUUGUUUUUUUUUUUGCAGAAGGGCUUACAUGAGGAUCACCCAUGUGAGAGGUCUA [JR_E6_Sub066] (puzzle: Exclusion 6) |  |  |  | apparent KD of MS2 coat protein [3]: 0.0199 µM |
| UCAUGGUUAGAGGAUAUAUAAUUAGUCAGAACAAUAGAAGGCUAGACAUGAGGAUCACCCAUGUAUGUUGAGGU [JR_Ex6_Sub065] (Eterna round: R97, puzzle: Exclusion 6) |  | 0.0426 | 0.0894 |  |
